In US20260234272A1 (SCHOLAR ROCK, published 2026):
One block for each binder: values may come before it.

Assays:
GARP-proTGFβ1 complex = biological target: T1, GARP-proTGFβ1 complex (human, UniProt Q14392 20-627; P01137 30-390, limits assumed); test: Octet, yeast expressed IgG1Agly; concentration not shown
T1 construct: In the cell assays GARP was overexpressed from a human plasmid (whole, on cells); also called GARP-TGFβ1

[1] = biological target: T2, human LTBP1-proTGFβ1 complex (human, UniProt Q14766 347-1721; P01137 30-390); test: Octet binning: 500 nM complex pre-incubated with 1 µM first antibody SR-AB10; competitor: second antibody SR-AB1 on AHC tip
T2 construct: Complex of presenting molecule LTBP1 disulfide-linked to a proTGFβ1 homodimer; also called proTGFβ1:LTBP1 complex; LTBP1-TGFβ1 complex
T2 sequence (Q14766 347-1721 limits assumed, chain 1 of 2): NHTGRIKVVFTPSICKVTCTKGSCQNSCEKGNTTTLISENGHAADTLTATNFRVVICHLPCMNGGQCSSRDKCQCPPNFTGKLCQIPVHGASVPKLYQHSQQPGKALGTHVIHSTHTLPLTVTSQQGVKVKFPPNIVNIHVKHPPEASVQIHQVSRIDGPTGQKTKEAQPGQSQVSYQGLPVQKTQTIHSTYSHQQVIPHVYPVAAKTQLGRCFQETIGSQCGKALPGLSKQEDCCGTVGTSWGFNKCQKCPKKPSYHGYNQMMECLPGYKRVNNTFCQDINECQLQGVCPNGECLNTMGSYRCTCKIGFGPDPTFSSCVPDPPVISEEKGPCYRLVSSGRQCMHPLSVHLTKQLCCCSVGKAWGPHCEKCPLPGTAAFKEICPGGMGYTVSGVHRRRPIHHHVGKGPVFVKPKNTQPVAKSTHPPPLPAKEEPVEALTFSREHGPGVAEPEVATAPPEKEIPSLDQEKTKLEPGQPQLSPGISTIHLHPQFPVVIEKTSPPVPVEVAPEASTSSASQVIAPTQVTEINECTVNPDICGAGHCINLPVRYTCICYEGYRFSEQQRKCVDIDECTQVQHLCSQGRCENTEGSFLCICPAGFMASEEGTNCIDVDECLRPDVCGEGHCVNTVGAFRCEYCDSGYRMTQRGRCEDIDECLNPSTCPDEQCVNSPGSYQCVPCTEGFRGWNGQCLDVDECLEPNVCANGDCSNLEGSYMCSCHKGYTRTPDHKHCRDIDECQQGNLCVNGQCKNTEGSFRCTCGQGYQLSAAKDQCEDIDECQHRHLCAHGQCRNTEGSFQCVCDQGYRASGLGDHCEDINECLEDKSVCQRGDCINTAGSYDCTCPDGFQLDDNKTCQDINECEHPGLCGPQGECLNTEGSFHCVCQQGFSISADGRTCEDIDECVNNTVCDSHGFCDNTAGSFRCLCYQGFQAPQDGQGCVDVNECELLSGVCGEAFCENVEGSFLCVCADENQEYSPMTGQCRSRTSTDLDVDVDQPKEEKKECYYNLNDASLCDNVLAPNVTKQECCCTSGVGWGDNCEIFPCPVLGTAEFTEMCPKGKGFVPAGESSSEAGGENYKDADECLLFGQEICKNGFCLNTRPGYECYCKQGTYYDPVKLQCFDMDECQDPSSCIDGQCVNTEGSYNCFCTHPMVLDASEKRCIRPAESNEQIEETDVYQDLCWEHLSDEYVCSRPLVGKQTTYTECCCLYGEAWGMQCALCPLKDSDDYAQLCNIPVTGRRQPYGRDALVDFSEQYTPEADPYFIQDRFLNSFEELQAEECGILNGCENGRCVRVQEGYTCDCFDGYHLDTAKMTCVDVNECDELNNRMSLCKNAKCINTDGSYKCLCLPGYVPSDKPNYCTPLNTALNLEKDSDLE
T2 sequence (P01137 30-390 limits assumed, chain 2 of 2): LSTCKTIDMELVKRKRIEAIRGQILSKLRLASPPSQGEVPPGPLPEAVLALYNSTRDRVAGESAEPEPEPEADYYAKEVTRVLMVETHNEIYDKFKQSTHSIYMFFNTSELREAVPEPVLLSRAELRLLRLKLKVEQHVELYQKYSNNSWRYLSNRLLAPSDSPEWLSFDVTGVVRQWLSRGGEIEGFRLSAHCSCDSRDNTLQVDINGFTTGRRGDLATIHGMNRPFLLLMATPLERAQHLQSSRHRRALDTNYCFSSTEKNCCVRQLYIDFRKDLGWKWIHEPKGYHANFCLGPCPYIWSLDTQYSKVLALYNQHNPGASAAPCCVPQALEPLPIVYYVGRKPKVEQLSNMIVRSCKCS
Experimental: (§1) 500 nM of human LTBP1-proTGFβ1 complex was pre-incubated with 1 μM of each test antibody. After an overnight incubation, the LTBP1-[…] first antibody was tested for binding to a second antibody which was immobilized to an Anti-Human IgG Fc Capture (AHC) sensor tip at 67 nM.
(§2) Binding of the complex to a specific second antibody was normalized to the uninhibited interaction, that is the complex in the presence of HuNeg control antibody. Normalized responses less than 70% or 0.7 of the uninhibited interaction were considered antibodies that cross block.

[2] = biological target: T2, human LTBP1-proTGFβ1 complex; test: Octet binning: 500 nM complex pre-incubated with 1 µM first antibody SR-AB10; competitor: second antibody SR-AB2 on AHC tip
Experimental: as §1, §2

[3] = biological target: T2, human LTBP1-proTGFβ1 complex; test: Octet binning: 500 nM complex pre-incubated with 1 µM first antibody SR-AB10; competitor: second antibody SR-AB10 on AHC tip
Experimental: as §1, §2

[4] = biological target: T2, human LTBP1-proTGFβ1 complex; test: Octet binning: 500 nM complex pre-incubated with 1 µM first antibody SR-AB10; competitor: second antibody SR-AB13 on AHC tip
Experimental: as §1, §2

[5] = biological target: T2, human LTBP1-proTGFβ1 complex; test: Octet binning: 500 nM complex pre-incubated with 1 µM first antibody SR-AB2; competitor: second antibody SR-AB1 on AHC tip
Experimental: as §1, §2

[6] = biological target: T2, human LTBP1-proTGFβ1 complex; test: Octet binning: 500 nM complex pre-incubated with 1 µM first antibody SR-AB2; competitor: second antibody SR-AB2 on AHC tip
Experimental: as §1, §2

[7] = biological target: T2, human LTBP1-proTGFβ1 complex; test: Octet binning: 500 nM complex pre-incubated with 1 µM first antibody SR-AB2; competitor: second antibody SR-AB10 on AHC tip
Experimental: as §1, §2

[8] = biological target: T2, human LTBP1-proTGFβ1 complex; test: Octet binning: 500 nM complex pre-incubated with 1 µM first antibody SR-AB2; competitor: second antibody SR-AB13 on AHC tip
Experimental: as §1, §2

[9] = biological target: T2, human LTBP1-proTGFβ1 complex; test: Octet binning: 500 nM complex pre-incubated with 1 µM first antibody SR-AB13; competitor: second antibody SR-AB1 on AHC tip
[10] = biological target: T2, human LTBP1-proTGFβ1 complex; test: Octet binning: 500 nM complex pre-incubated with 1 µM first antibody SR-AB13; competitor: second antibody SR-AB2 on AHC tip
[11] = biological target: T2, human LTBP1-proTGFβ1 complex; test: Octet binning: 500 nM complex pre-incubated with 1 µM first antibody SR-AB13; competitor: second antibody SR-AB10 on AHC tip
[12] = biological target: T2, human LTBP1-proTGFβ1 complex; test: Octet binning: 500 nM complex pre-incubated with 1 µM first antibody SR-AB13; competitor: second antibody SR-AB13 on AHC tip

T1 sequence (Q14392 20-627 limits assumed, chain 1 of 2): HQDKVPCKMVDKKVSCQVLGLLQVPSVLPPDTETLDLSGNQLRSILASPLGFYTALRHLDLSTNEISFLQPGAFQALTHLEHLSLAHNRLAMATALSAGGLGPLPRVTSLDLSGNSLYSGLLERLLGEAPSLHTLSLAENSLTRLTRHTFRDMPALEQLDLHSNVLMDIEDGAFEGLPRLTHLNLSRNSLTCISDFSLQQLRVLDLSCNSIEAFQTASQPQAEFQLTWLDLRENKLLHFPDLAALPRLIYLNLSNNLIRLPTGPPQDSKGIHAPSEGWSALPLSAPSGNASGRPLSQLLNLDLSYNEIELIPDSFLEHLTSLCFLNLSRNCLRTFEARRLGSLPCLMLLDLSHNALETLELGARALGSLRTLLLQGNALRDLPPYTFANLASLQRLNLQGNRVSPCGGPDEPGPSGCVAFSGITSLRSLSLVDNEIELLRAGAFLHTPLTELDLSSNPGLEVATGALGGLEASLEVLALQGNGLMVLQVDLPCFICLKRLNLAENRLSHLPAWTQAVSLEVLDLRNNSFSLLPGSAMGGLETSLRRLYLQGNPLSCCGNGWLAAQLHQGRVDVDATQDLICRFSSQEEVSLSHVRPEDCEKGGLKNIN
T1 sequence (P01137 30-390 limits assumed, chain 2 of 2): as the sequence (P01137 30-390 limits assumed, chain 2 of 2) above

binding result (GARP-proTGFβ1 complex): no binding | normalized response (relative to HuNeg control) [1]: 0.82 fraction of uninhibited interaction | normalized response (relative to HuNeg control) [2]: 1.53 fraction of uninhibited interaction | normalized response (relative to HuNeg control) [3]: 0.51 fraction of uninhibited interaction | normalized response (relative to HuNeg control) [4]: 1.27 fraction of uninhibited interaction
B1: SR-AB10 (antibody, V domains shown)
VH: QLQLQESGGGVVQPGRSLRLSCAASGFTFNNYPIHWVRQAPGKGLEWVAVMSYDGINKYYADSVKGRFTISRDNSKNTLYLQMNSLRAEDTAVYYCARPRIAARRGGFDYWGQGTLVTVSS
VL: NFMLTQPHSVSESPGKTVTISCTRSSGNIDNNYVQWYQQRPGSSPTTVIYEDNQRPSGVPDRFSGSIDSSSNSASLTISGLKTEDEADYYCQSYDSDNQGVVFGGGTKLTVL

normalized response (relative to HuNeg control) [5]: 1.11 fraction of uninhibited interaction | normalized response (relative to HuNeg control) [6]: 0.47 fraction of uninhibited interaction | normalized response (relative to HuNeg control) [7]: 1.54 fraction of uninhibited interaction | normalized response (relative to HuNeg control) [8]: 1.31 fraction of uninhibited interaction
B2: SR-AB2 (antibody, V domains shown)
VH: QVQLVQSGAEVKKPGASVKVSCKASGYTFTSYGISWVRQAPGQGLEWMGWISAYNGNTNYAQKLQGRVTMTTDTSTSTAYMELRSLRSDDTAVYYCARAPLGNFDSWGQGTMVTVSS
VL: NFMLTQPHSVSESPGKTVTISCTRSSGSIASNYVQWYQQRPGSSPTTVIYEDNQRPSGVPDRFSGSIDSSSNSASLTISGLKTEDEADYYCQSYDSSNHPVVFGGGTKLTVL

normalized response (relative to HuNeg control) [9]: 1.08 fraction of uninhibited interaction | normalized response (relative to HuNeg control) [10]: 1.29 fraction of uninhibited interaction | normalized response (relative to HuNeg control) [11]: 1.38 fraction of uninhibited interaction | normalized response (relative to HuNeg control) [12]: 0.47 fraction of uninhibited interaction
B3: SR-AB13 (antibody, V domains shown)
VH: QLQLQESGPGLVKPSETLSLTCTVSGGSISSSSYYWGWIRQPPGKGLEWIGSISYSGSTYYNPSLKSRVTISVDTSKNQFSLKLSSVTAADTAVYYCARDPSYDSIAGMDVWGQGTTVTVSS
VL: DIQLTQSPSSLSASVGDRVTITCRASQSISSYLNWYQQKPGKAPKLLIYAASNLQSGVPSRFSGSGSGTDFTLTISSLQPEDFATYYCQQSFDFPFTFGGGTKVEIK
